These are literature values, as cited in PMC5336612, “Therapeutic effects of different doses of polyethylene glycosylated porcine glucagon-like peptide-2 on ulcerative colitis in male rats” (BMC Gastroenterology, 2017).

Where two headings read alike, the source gives them in different places.

On the set-up of data set [1]: method as in PMID 19773525. The conditions noted are these: patient; cited from earlier work.
The conditions of data set [2]: rat, in vivo; cited from earlier work.
For data set [3] the following is noted: in vivo, cited from earlier work.
For data set [4] the following is noted: in vivo; cited from earlier work.

Consider teduglutide, for which the t1/2 in data set [1] is reported as 2.99 h.

Turning to “HGDGSFSDEMNTVLDNLATRDFINWLLHTKITDSL [p[Gly^2]GLP-2, Porcine [Gly^2] GLP-2]”, the half-life in data set [2] is 0.817 h.

As for “PEG(2 k)-Lys-GLP-1: PEGylated glucagon-like peptide-1 of Lee et al.”, the half-life increase in data set [3] (iv) was 16 fold; in data set [3] (sc), 3.2 fold.

With “porcine glucagon-like peptide-2 (HADGSFSDEMNTVLDNLATRDFINWLLHTKITDSL; Glucagon-like peptide 2; UniProt P01274 146-180, looked up) [pGLP-2]”, in data set [4], the “half-life of intact pGLP-2” value was 8.4 min.

What is called half-life is how long it takes for the measured level to halve.
